Consider 41 sequences from the nanobody polyreactivity screen of Harvey et al. (2022).

The data set is described as follows: yeast display, Sf9 membrane polyspecificity reagent, FACS + sequencing; frameworks hold sequencing errors. The essentials: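 Nanobodies came from a synthetic yeast display library in Saccharomyces cerevisiae BJ5465, induced with galactose for 36–48 hours and stained for 1 hour at 4 °C with 10% biotinylated, detergent-solubilized Sf9 membrane reagent. Cells were enriched on streptavidin microbeads and then FACS-sorted, with low and high (top ~1%) gates set on anti-HA fluorescence for expression and streptavidin fluorescence for reagent binding. Each polyreactivity label reflects the gate a clone came from. Genes were amplified by colony PCR, sequenced by MiSeq 2 × 250 and filtered by CDR length.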
Regarding “QVQLVESGGGLVQAGGSLRLSCAASGRTFRSNVMRWYRQAPGKERELVASITWSGGTTYYADSVKGRFTISRDNAKNTVYLQMNSLKPEDTAVYYCNAADERSQGWVGYDHWGQCTQVTVSS”, the “polyreactivity (PSR sort gate)” value was “low polyreactivity”.
Take “QVQLVESGGGLVQAGGSLRLSCAASGRTFRSYAMGWYRQAPGKERELVAAISDGGSTNYADSVKGRFTISRDNAKNTVYLQMNSLKPEDTAVYYCAAEIFFAVFRFYYWGQGTQVTVSS”: the “polyreactivity (PSR sort gate)” value was “low polyreactivity”.
Turning to “QVQLVESGGGLVQAGGSLRLSCAASGRTFRSYAMGWYRQAPGKERELVAAISRGGRTNYADSVKGRFTISRDNAKNTVYLQMNSLKPEDTAVYYCAARLPYLGGYDYWGQGTQVTVSS”, the “polyreactivity (PSR sort gate)” value is “high polyreactivity”.
As for “QVQLVESGGGLVQAGGSLRLSCAASGRTFRSYTMGWYRQAPGKERELVAAIRTSSGSTYYADSVKGRFTISRDNAKNTVYLQMNSLKPEDSGVYYGAKTLLYPWFRTVAVDYWGQGTQVTVSS”, the “polyreactivity (PSR sort gate)” value is “low polyreactivity”.
Under “QVQLVESGGGLVQAGGSLRLSCAASGRTFRSYTMGWYRQAPGKERELVASITRSGVSTYYADSVKGRFTISRDNAKNTVYLQMNSLKPEDTAVYYCAAYSVFRSYDYWGQGTQVTVSS” stands “high polyreactivity”.
Then “QVQLVESGGGLVQAGGSLRLSCAASGRTFRTYAMGWYRQAPGKERELVAAISFSDGSTYYADSVKGRFTISRDNAKNTVYLQMNSLKPEDTAVYYCAKEYEYPYYIRYQVGYDFDYWGQGTEVTVSS”, with “low polyreactivity”.
Under “QVQLVESGGGLVQAGGSLRLSCAASGRTFRTYAMGWYRQAPGKERELVAAITSGGSTYYADSVKGRFTISRDNAKNTVYLQMNSLKPEDTAVYDCAAISTWGTKYDYWGQGTQVTVSS” stands “high polyreactivity”; under “QVQLVESGGGLVQAGGSLRLSCAASGRTFRTYAMGWYRQAPGKERELVAAITTSGSSTYYADSVKGRFTISRDNAKNTVYLQMNSLKPEDTAVYYCAAARAAIVPGYYSWGQGTQVTVSS”, “low polyreactivity”; under “QVQLVESGGGLVQAGGSLRLSCAASGRTFRTYTMGWYRQAPGKERELVAAISWSGSSTYYADSVKGRFTISRDNAKNTVYLQMNSLKPEDTAGYYCAARGLYDYGYWGQGTQVTVSS”, “high polyreactivity”.
Turning to “QVQLVESGGGLVQAGGSLRLSCAASGRTFRVYAIGWYRQAPGKEREFVATISVRGGSTYYADSVKGRFTISRDNAKNTVYLQMNSLKPEDTAVYYCAADSYPYVYALYDSWGLGTQVTVSS”, the “polyreactivity (PSR sort gate)” value is recorded as “low polyreactivity”.
Then “QVQLVESGGGLVQAGGSLRLSCAASGRTFRVYAMGWYRQAPGKERELVAAINGGGSTNYADSVKGRFTISRDNAKNTVYLQMNSLKPEDTAVYYCIATGRRSKRIYDYWGQGTQVTVSS”, with “high polyreactivity”; and “QVQLVESGGGLVQAGGSLRLSCAASGRTFRVYAMGWYRQAPGKERELVAAINGGGSTNYADSVKGRFTISRDNAKNTVYVQMNSLKPEDTAVYYCNATGRRSKRIYDYWGQGTQVTVSS”, with “high polyreactivity”.
Under “QVQLVESGGGLVQAGGSLRLSCAASGRTFRVYAMGWYRQAPGKERELVAGIRSRGGSTYYADSVKGRFTISRDYAKNTVYLQMNSLKPEDTAVYYCAAGYYLPQAIYEYWGLGTQVTVSS” stands “high polyreactivity”; under “QVQLVESGGGLVQAGGSLRLSCAASGRTFRWNAMGWYRQAPGKERELVASITVNGGSTSYADSVKGRFTISRDNAKNTVYLQMNSLKPEDTAVYYCNAYYTYWYPRYDYWGQGTQVTVSS”, “low polyreactivity”.
Under “QVQLVESGGGLVQAGGSLRLSCAASGRTFRWNVMGWYRQAPGKERELVAAISSDGSTYYADSVKGRFTISGDNAKNTVYLQMNSLKPEDTAVYYCAAVVSYYFRYGGSAYKYGYWGQGTQVTVSS” stands “high polyreactivity”; under “QVQLVESGGGLVQAGGSLRLSCAASGRTFRWYAMGWYRQAPGKERELVAAIRSGGRTYYADSVKGRFTISRDNAKNTVYLQMNSLKPEDTAVYYCAALAVTYRYDYWGQGTQVTVSS”, “high polyreactivity”.
On to “QVQLVESGGGLVQAGGSLRLSCAASGRTFRWYAMGWYRQAPGKERELVAAITSDGRTYYADSVKGRFTISRDNAKNTVYLQMNSLNPEDTAVYYCNAACRYAFPFGYNYWGQGTQVTVSS”, for which the “polyreactivity (PSR sort gate)” value is reported as “high polyreactivity”.
Under “QVQLVESGGGLVQAGGSLRLSCAASGRTFRWYTMGWYRQAPGKEREFVAAITWSGSSTNYADSVKGRFTISRDNAKNTVYLQMNSLKPEDTAVYYCAAENRRRRDDYWGQGTQVTVSS” stands “high polyreactivity”; under “QVQLVESGGGLVQAGGSLRLSCAASGRTFRYNAMGWYRQAPGKERELVAAINWNGGSTYYADSVKGRFTISRDNAKNTGYLQMHSLKPEDTAVYYCNADFYHRYDWGQGTQVTGSS”, “high polyreactivity”.
Under “QVQLVESGGGLVQAGGSLRLSCAASGRTFRYNAMGWYRQAPGKERELVAAISGRGSSTYYADSVKGRFTISRDNAKNTVYLQMNSLKPEDTAVYYCAADRFRLYVGGWWYDYWGQGTQVTVSS” stands “high polyreactivity”; under “QVQLVESGGGLVQAGGSLRLSCAASGRTFRYNAMGWYRQAPGKERELVAAISGRGSSTYYSDSVKGRFTISRDNAKNTVYLQMNSLTPEDTAVYYCAALPASVRRPAWHDYWGQGTQVTVSS”, “high polyreactivity”.
Under “QVQLVESGGGLVQAGGSLRLSCAASGRTFRYNAMGWYRQAPGKERELVADITFSGGNTYYADSVKGRFTISRDNAKNTVYLQMNSLKPEDTAVYYCAKRRYYTGGMDYWGQGTQVTVSS” stands “low polyreactivity”; under “QVQLVESGGGLVQAGGSLRLSCAASGRTFRYNAMGWYRQAPGKERELVAGITWRGGRTYYADSVKGRFTISRDNAKNTVYLQMNSLKPEDTAVYYCNTAGYYWLHYTMDYWGQGTQVTVSS”, “high polyreactivity”.
“QVQLVESGGGLVQAGGSLRLSCAASGRTFRYNAMGWYRQAPGKERELVASIRYSSASTYYADSVKGRFTISRDNAKNTVYLQMNSLKPEDTAVYYCAASWYPVIVGYDYWGQGTQVTVSS”: the “polyreactivity (PSR sort gate)” value is reported as “high polyreactivity”.
Take “QVQLVESGGGLVQAGGSLRLSCAASGRTFRYNAMGWYRQAPGKERELVATISSSGGSTSYADSVKGRFTISRDNAKNTVYLQMNSLKREDTAVYYCNKRRLVAPGNGMDSWGQGTQVTVSS”: the “polyreactivity (PSR sort gate)” value was “low polyreactivity”.
In the case of “QVQLVESGGGLVQAGGSLRLSCAASGRTFRYNTMGWYRQAPGKERELVAITYRGGSTYADSVKGRFTISRDNAKNTVYLQMNSLKPEDTAVYYCAKVVNWCRGYGGTDHYYWGQGTQVTVSS”, the “polyreactivity (PSR sort gate)” value is given as “high polyreactivity”.
Then “QVQLVESGGGLVQAGGSLRLSCAASGRTFRYNVMGWYRQAPGKERELVAAITYSGGRTYYADSVKGRFTISRDNVKNTVYLQMNSLKPEDTAVYYCAALSAPGYGRYNYWGQGTQVTVSS”, with “high polyreactivity”; and “QVQLVESGGGLVQAGGSLRLSCAASGRTFRYYAKGWYRPAPGTERELVADISSTGRTYYADSVKGRFTISRDNAKNTVYLQMNSLKPEDTAVYYCNADYFFEFDYWGQGTQVTVSS”, with “low polyreactivity”.
Under “QVQLVESGGGLVQAGGSLRLSCAASGRTFRYYAMAWYRQAPGKERELVAAIRSGGITNYADSVKGRFTISLDNAKYTVYLQMNRLKPEDTAVYYCAQAIRGHYWGQGTQVTVSS” stands “high polyreactivity”.
Under “QVQLVESGGGLVQAGGSLRLSCAASGRTFRYYAMGWYREAPGKERELVAAISSSGDRTYYADSVKGRFTISRDNAKNTVYVQMNSLKPEDTAVYYCAKDSYRRYWGQGTQVTVSS” stands “high polyreactivity”; under “QVQLVESGGGLVQAGGSLRLSCAASGRTFRYYAMGWYRKAPGKERELVATISKSGGSTYYADSVKGRFTISRDNAKNTVYLQMNSLKPEDTAVYYCAAVGPYRWYDYWGQGTQVTVSS”, “high polyreactivity”.
Turning to “QVQLVESGGGLVQAGGSLRLSCAASGRTFRYYAMGWYRPAPGKERELVAAITISSGSTYYADSVKGRFTISRDNAKNTVYLQMNSLKPEDTAVYYCAATRRYHFDYWGQGTQVTVSS”, the “polyreactivity (PSR sort gate)” value is on record as “high polyreactivity”.
Under “QVQLVESGGGLVQAGGSLRLSCAASGRTFRYYAMGWYRQAPGKEREFVAAITSRSSRTYYADSVKGRFTISRDTAKNTVYLQMNSLKPEDTAVYYCARGSELGYYAWVYYWGQGTQVTVSS” stands “high polyreactivity”; under “QVQLVESGGGLVQAGGSLRLSCAASGRTFRYYAMGWYRQAPGKERELVAAISSSGDRTYYADSVKGRFTISRDNAKNTVYLQMNSLKPEDTAVYYCAADRGARGDYWGQGTQVTVSS”, “high polyreactivity”; under “QVQLVESGGGLVQAGGSLRLSCAASGRTFRYYAMGWYRQAPGKERELVAAISYSGGSTYYADSVKGRFTISRDNAKNTVYLQMNSLKPEDTAVYYCAAGPWHYKYSLRGWGYYWGQGTQVTVSS”, “high polyreactivity”.
Then “QVQLVESGGGLVQAGGSLRLSCAASGRTFRYYAMGWYRQAPGKERELVAAITGSGGSTYYADSVKGRFTISRDNAKNTVYLQMNSLKPEDTAVYYCATRWALRWRGGYWGQGTQVTVSS”, with “high polyreactivity”.
Under “QVQLVESGGGLVQAGGSLRLSCAASGRTFRYYAMGWYRQAPGKERELVAAITSGGSTYYADSVKGRFTISRDNAKNTVYLQMNSLKPEDTAVYYDYWGQGTQVTVSS” stands “low polyreactivity”; under “QVQLVESGGGLVQAGGSLRLSCAASGRTFRYYDMGWYRQSPGKERELVARISISGAGTYYADSVKVRFTISRDNAKNNVYLQMNSLKPEDTAVYYCAADLFWWQKTNSGGDYWGQGTQVTVSS”, “low polyreactivity”; under “QVQLVESGGGLVQAGGSLRLSCAASGRTFRYYTMGWYRPAPGKEREFVSSISWNGGSTYYADSVKGRFTISRDNAKNTVYLQIKSLKPEDTAVYYCSADDPYRVYRGPYGYWGQCTQVTVSS”, “high polyreactivity”.
Regarding “QVQLVESGGGLVQAGGSLRLSCAASGRTFRYYTMGWYRQAPGKEREFVAAISSTGGTYYADSVKGRFTISRDNAKNTVYLQMNCLIPEDTAVYYCAATFIQVVVNVQLYDYDYWGQGTQVTVSS”, the “polyreactivity (PSR sort gate)” value was “low polyreactivity”.
For the sequence “QVQLVESGGGLVQAGGSLRLSCAASGRTFRYYTMGWYRQAPGKEREFVAAISSTGGTYYADSVKGRFTISRDNAKNTVYLQMNSLKPEDTAVFYGAATFIQVVVNGQLYDYDYWGQGTQVTVSS”, the “polyreactivity (PSR sort gate)” value is reported as “low polyreactivity”.
